Series [1] in a line: Solubility of RPA32C in crystallization screening. It is filed as physicochemical. Conditions: all sparse matrix conditions examined, standard buffer conditions.
The target of series [2] is RPA32C, the optimized RPA32_(202–270) construct (C-terminal winged-helix domain of the RPA 32 kDa subunit) (UniProt P15927 202-270). Kind of series: NMR titration.
The target in series [3] is RPA32_(172–270), the previously reported RPA32C construct of the replication protein A 32 kDa subunit (UniProt P15927 172-270). Kind of series: ITC. In general terms: ITC needs no label: the signal is the heat of the interaction.

We go through three molecules from publication PMC4020579 (Biochemistry, 2014).

Chain of RPA32C, the optimized RPA32_(202–270) construct (C-terminal winged-helix domain of the RPA 32 kDa subunit) (P15927 202-270): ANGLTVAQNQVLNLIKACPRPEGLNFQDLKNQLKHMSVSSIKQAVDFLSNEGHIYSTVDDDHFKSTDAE
Chain of RPA32_(172–270), the previously reported RPA32C construct of the replication protein A 32 kDa subunit (P15927 172-270): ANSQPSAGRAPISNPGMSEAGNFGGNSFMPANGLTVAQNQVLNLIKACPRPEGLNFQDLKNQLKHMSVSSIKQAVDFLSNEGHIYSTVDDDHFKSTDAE

Regarding “RPA32C: optimized C-terminal winged-helix domain construct of the RPA 32 kDa subunit, residues 202–270”, in series [1], the “concentration at which soluble” value was not below 40000 µg/mL.
For EEQRKKIEENRQKALARRAEKLLAEQ (peptide, UniProt Q9NZC9 7-32, looked up) [SMARCAL1_(7–32) peptide], the binding result in series [2] is listed as “binds”.
The term Kd denotes a measure of binding affinity in units of concentration. A low value points to tighter binding. Regarding MSLPLTEEQRKKIEENRQKALARRAEKLLAEQ (peptide, UniProt Q9NZC9 1-32, looked up) [SMARCAL1_(1–32), SMARCAL1 residues 1–32 containing the RPA binding motif (RBM)], binding in series [3] was put at a Kd of 2.5 ± 0.1 µM.
